Positions count from the first letter of the chain named.

Assay [1] concerns the target human IL-15 (hIL-15+hIL-15Rα complex), tag on IL-15Rα not stated (human (homo sapiens)) (UniProt P40933). The experiment in a line: SPR (Biacore T200), antibody captured by anti-human IgG Fc, complex as analyte, 1:1 model.
For assay [2] the target is unchanged. As to the kind of experiment: SPR (Biacore T200), as in Example 2.2. For orientation: SPR reads the build-up and loss of mass on a sensor chip optically.
Assay [3] has the same target. As to the kind of experiment: cell-based or functional assay.
Assay [4] deals with human IL-15 (hIL-15+hIL-15Rα-His complex) (human (homo sapiens)) (UniProt P40933). The experiment in a line: cell-based or functional assay.
Assay [5] addresses human IL-15 (hIL-15+hIL-15Rα complex), tag on IL-15Rα not stated (human (homo sapiens)) (UniProt P40933). The experiment in a line: SPR (Biacore T200), as in Example 2.2. The source holds these as a separate data set.
In assay [6] the target is cynomolgus monkey IL-15 (mfIL-15+mfIL-15Rα complex), tag on IL-15Rα not stated (cynomolgus monkey (Macaca fascicularis)) (UniProt P40221). As to the kind of experiment: SPR (Biacore T200), as in Example 2.2.
Assay [7] concerns the target T1, human IL-15 (hIL-15+hIL-15Rα complex), tag on IL-15Rα not stated (human (homo sapiens), UniProt P40933 49-162; Q13261 31-128).
T1 construct: Co-expressed complex (superagonist) of human IL-15 and human IL-15Rα made in HEK293 cells; also called human IL-15 (IL-15+IL-15Rα complex); IL-15+IL-15Rα complex
The experiment in a line: SPR (Biacore T200), as in Example 2.2.

Assay [8] has as its target T1, human IL-15 (hIL-15+hIL-15Rα complex), …. As to the kind of experiment: SPR (Biacore T200), as in Example 2.2. This is another data set of the same source.
The target is the same in assay [9]. The experiment in a line: cell-based or functional assay.
The target is the same in assay [10]. As to the kind of experiment: SPR (Biacore T200), antibody captured by anti-human IgG Fc, complex as analyte, 1:1 model.
In assay [11] the target is T2, mouse IL-15 (mIL-15+mIL-15Rα-mFc1 complex) (mouse (Mus musculus), UniProt P48346 49-162).
T2 construct: also called mIL-15+mIL-15Rα-mFe1 complex
The experiment in a line: ELISA, complex coated at 1 µg/mL, anti-human IgG-HRP detection. (In general: An ELISA detects its analyte on a solid surface through an enzyme-linked reagent.)

For assay [12], the target named is human IL-15 (hIL-15+hIL-15Rα-His complex) (human (homo sapiens), UniProt P40933 49-162; Q13261 31-128). As to the kind of experiment: cell-based or functional assay.
For assay [13], the target named is T1, human IL-15 (hIL-15+hIL-15Rα complex), …. As to the kind of experiment: SPR (Biacore T200), as in Example 2.2. The source holds these as a separate data set.
The target is the same in assay [14]. As to the kind of experiment: SPR (Biacore T200), as in Example 2.2. The source holds these as a separate data set.
For assay [15], the target named is T3, cynomolgus monkey IL-15 (mfIL-15+mfIL-15Rα complex), tag on IL-15Rα not stated (cynomolgus monkey (Macaca fascicularis), UniProt P40221 49-162; Q13261 31-128).
T3 construct: also called monkey IL-15+IL-15Rα superagonist
T3 chain 1: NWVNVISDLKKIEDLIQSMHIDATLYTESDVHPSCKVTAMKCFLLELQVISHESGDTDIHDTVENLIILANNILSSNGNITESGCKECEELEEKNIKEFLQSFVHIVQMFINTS
T3 chain 2: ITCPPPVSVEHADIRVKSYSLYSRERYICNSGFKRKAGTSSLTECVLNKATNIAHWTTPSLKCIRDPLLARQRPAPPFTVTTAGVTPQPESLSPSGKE
The experiment in a line: SPR (Biacore T200), as in Example 2.2.

Assay [16] has as its target cynomolgus monkey IL-15 (mfIL-15+mfIL-15Rα-His complex) (cynomolgus monkey (Macaca fascicularis), UniProt P40221 49-162 (Chlorocebus aethiops entry)). As to the kind of experiment: ELISA, complex coated at 1 µg/mL, anti-human IgG-HRP detection.

T2 sequence (P48346 49-162 limits assumed, chain 1 of 2): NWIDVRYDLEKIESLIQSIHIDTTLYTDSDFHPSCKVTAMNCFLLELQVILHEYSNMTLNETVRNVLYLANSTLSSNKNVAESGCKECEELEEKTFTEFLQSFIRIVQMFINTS
T2 sequence (chain, as listed by the source limits assumed, chain 2 of 2): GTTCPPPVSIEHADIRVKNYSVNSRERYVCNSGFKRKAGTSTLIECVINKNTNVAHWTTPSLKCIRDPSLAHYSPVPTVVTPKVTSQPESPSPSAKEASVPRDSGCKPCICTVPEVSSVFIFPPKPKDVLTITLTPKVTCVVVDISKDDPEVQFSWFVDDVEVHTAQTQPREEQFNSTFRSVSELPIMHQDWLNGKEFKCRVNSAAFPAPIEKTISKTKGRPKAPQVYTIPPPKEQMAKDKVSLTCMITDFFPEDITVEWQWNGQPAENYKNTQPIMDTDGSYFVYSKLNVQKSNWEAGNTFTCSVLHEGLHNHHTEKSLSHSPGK
Sequence of human IL-15 (hIL-15+hIL-15Rα-His complex) (P40933 49-162 limits assumed, chain 1 of 2): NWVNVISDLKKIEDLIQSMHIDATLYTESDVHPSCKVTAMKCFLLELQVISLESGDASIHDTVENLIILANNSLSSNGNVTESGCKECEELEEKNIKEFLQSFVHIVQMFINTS
Sequence of human IL-15 (hIL-15+hIL-15Rα-His complex) (Q13261 other isoform, or with tags, fused parts or gaps limits assumed, chain 2 of 2): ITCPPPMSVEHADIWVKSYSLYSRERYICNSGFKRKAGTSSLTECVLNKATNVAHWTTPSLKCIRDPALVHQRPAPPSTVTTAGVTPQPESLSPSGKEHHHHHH

What is called Kd is the constant that tells how readily two partners part at equilibrium. As usually defined, the koff is the first-order rate constant of dissociation. The kon is a measure of how fast the partners come together. Consider “anti-human IL-15 monoclonal antibody CALY-002”, for which the Kd in assay [1] was found to be 0.239 nM; in assay [2], 0.337 nM; in [5] it was 0.201 nM; in [6], 0.148 nM. The koff in [1] turned out to be 0.000319 s⁻¹; in assay [2], 0.000235 s⁻¹; in assay [5], 0.000207 s⁻¹; in assay [6], 0.000188 s⁻¹. In addition, the kon in assay [1] stood at 1.34e+06 M⁻¹ s⁻¹; in [2], 697000 M⁻¹ s⁻¹; in assay [5] it was 1.03e+06 M⁻¹ s⁻¹; in [6] it was 1.27e+06 M⁻¹ s⁻¹. This molecule also registered an IC50(nM), inhibition of IL-15-induced SEAP secretion by HEK-Blue IL-2 cells in assay [3] of 3.23 nM. Besides, the IC50(nM), inhibition of IL-15-driven proliferation of NK92 cells (Cell Titer-Glo) in assay [4] stood at 0.106 nM.

B1: mouse anti-human IL-15 monoclonal antibody R6E11 (antibody, V domains shown)
VH: EVKLKESGPSLVQPSQSLSITCTVSGFSLTTYAVHWVRQSPGKGLEWLGVIWGAGSTDYNAAFMSRLSITKDNSKSQVFFKMNSLQADDTAIYFCAKNGAYYVMDYWGQGTSVTVSS
VL: EIVLTQSPAIMSASPGEKVTITCSASSSVSYMHWFQQRPGTSPKLWIYSTSNLASGVPARFSGSGSGTSYSLTISRMEAEDAATYYCQQRSSYPLTFGAGTKLEIK
notes: Mouse variable regions from a mouse immune phage library
In assay [7], B1 yielded an equilibrium dissociation constant (Kd) of 0.689 nM, a koff of 0.000267 s⁻¹ and a kon of 387000 M⁻¹ s⁻¹. In [8], this molecule showed a Kd of 0.983 nM, a koff of 0.000399 s⁻¹ and a kon of 406000 M⁻¹ s⁻¹.

B2: anti-human IL-15 monoclonal antibody R1A3 (antibody, V domains shown)
VH: EVQLVQSGAEVKKPGESLKISCKVSGYFFTTYWIGWVRQMPGKGLEYMGIIYPGDSDTRYSPSFQGQVTISADKSISTAYLQWSSLKASDTAMYYCARGGHWNAFDFWGQGTLVTVSS
VL: EIVLTQSPGTLSLSPGERATLSCRASQSVSSSYLAWYQQKPGQAPRLLIYGASRRATGIPDRFSGSGSGTDFTLTISRLEPEDFAVYYCQQFDASQTFGQGTKLEISR
notes: Found from a fully human Fab phage library
On to B2, for which, in assay [9], the “IC50(nM), inhibition of IL-15-induced SEAP secretion by HEK-Blue IL-2 cells” value (“IC50(nM), inhibition … by HEK-Blue IL-2 cells” below) amounted to 0.634 nM. Also, the Kd in [10] stood at 0.381 nM; in [13], 0.352 nM; in [14] it was 0.612 nM; in [15], 0.722 nM. In addition, the koff in assay [10] turned out to be 0.000537 s⁻¹; in assay [13], 0.000548 s⁻¹; in assay [14], 0.00038 s⁻¹; in [15], 0.000398 s⁻¹. Further, the kon in [10] amounted to 1.41e+06 M⁻¹ s⁻¹; in assay [13] it was 1.56e+06 M⁻¹ s⁻¹; in assay [14] it was 621000 M⁻¹ s⁻¹; in assay [15] it was 552000 M⁻¹ s⁻¹. Further, the binding result in [11] was “no binding”. In assay [12], the “IC50(nM), inhibition of IL-15-driven proliferation of NK92 cells (Cell Titer-Glo)” value (from here on “IC50(nM), inhibition … (Cell Titer-Glo)”) came out at 0.126 nM.

B3: anti-human IL-15 monoclonal antibody AMG714 (antibody, V domains shown)
VH: B2 VH with H101N, A104C, F107Y
VL: B2 VL with Q91R, F92Y, D93G, A94S, Q96H
B3: in [15], binding was characterised by a dissociation constant (Kd) of 2.12 nM, the koff came out at 0.00124 s⁻¹ and the kon is 583000 M⁻¹ s⁻¹.

B4: anti-human IL-15 monoclonal antibody R26H10 (antibody, V domains shown)
VH: QVTLKESGPVLVKPTETLTLTCTVSGFSLTTYAVHWIRQPPGKALEWLGVIWGAGSTDYNPSFMSRLTISKDTSKSQVVLTMTNMDPVDTATYYCAKNAAYYVMDYWGQGTTVTVSS
VL: EIVLTQSPGTLSLSPGERATLSCRASQSVIYSYLAWYQQKPGQAPRLLIYAASKLASGIPDRFSGSGSGTDFTLTISRLEPEDFAVYYCQQRASYPLTFGQGTKVEIK
notes: Humanized mutant of R6E11 with a fully human light chain; captured by anti-human IgG (Fc) in SPR and detected with anti-human IgG in ELISA
As for B4, in assay [9], the “IC50(nM), inhibition … by HEK-Blue IL-2 cells” value amounted to 0.646 nM. For the same molecule, the results for the binding result in assay [16] and in assay [11] were “binds” and “no binding”, respectively. Further, in assay [12], the “IC50(nM), inhibition … (Cell Titer-Glo)” value was 0.133 nM. For the same molecule, the Kd in assay [14] is 1.13 nM; in assay [8] it was 1.22 nM; in assay [15] it was 99.9 nM. The koff amounted to 0.000236 s⁻¹ in [14], 0.000308 s⁻¹ in [8] and 0.021 s⁻¹ in [15]. Further, the association rate constant (kon) in [14] is 208000 M⁻¹ s⁻¹; in [8], 252000 M⁻¹ s⁻¹; in assay [15], 210000 M⁻¹ s⁻¹.

B5: anti-human IL-15 monoclonal antibody R4G4VH+R22F11VK (antibody, V domains shown)
VH: B2 VH with F107I
VL: B4 VL with Y31G, A51S, R92H, A93Y, Y95T, L97G
notes: Mutant of R1A3; it was captured by anti-human IgG (Fc) in SPR and detected with anti-human IgG in ELISA, so a human Fc is implied; also called R4G4VH+R22FVK
Turning to B5, the “IC50(nM), inhibition … by HEK-Blue IL-2 cells” value in [9] turned out to be 0.312 nM. The binding result in [16] is “binds”; in assay [11], “no binding”. Moreover, in assay [12], the “IC50(nM), inhibition … (Cell Titer-Glo)” value was found to be 0.109 nM. In addition, the Kd amounted to 0.346 nM in assay [13], 0.435 nM in assay [14] and 0.448 nM in [15]. Further, the koff worked out at 0.00029 s⁻¹ in [13], 0.000196 s⁻¹ in [14] and 0.000172 s⁻¹ in assay [15]. Also, the kon is 838000 M⁻¹ s⁻¹ in [13], 450000 M⁻¹ s⁻¹ in assay [14] and 384000 M⁻¹ s⁻¹ in assay [15].

B6: anti-human IL-15 monoclonal antibody R2H2VH+R22F11VK (antibody, V domains shown)
VH: B2 VH with A104S, F107T
VL: B4 VL with Y31G, A51S, R92H, A93Y, Y95T, L97G
notes: Mutant of R1A3; it was captured by anti-human IgG (Fc) in SPR and detected with anti-human IgG in ELISA, so a human Fc is implied; also called R2H2VH+R22FVK
On to B6, for which the “IC50(nM), inhibition … by HEK-Blue IL-2 cells” value in [9] was 0.397 nM. Also, the results for the binding result in assay [16] and in assay [11] were “binds” and “no binding”, respectively. Moreover, the “IC50(nM), inhibition … (Cell Titer-Glo)” value in assay [12] worked out at 0.119 nM. The Kd in [13] is 0.379 nM; in assay [14], 0.57 nM; in [15], 0.463 nM. The figures for the off-rate (koff) in assay [13], in assay [14] and in assay [15] were 0.000299 s⁻¹, 0.000204 s⁻¹ and 0.000171 s⁻¹, respectively. Moreover, the on-rate (kon) worked out at 791000 M⁻¹ s⁻¹ in assay [13], 357000 M⁻¹ s⁻¹ in [14] and 365000 M⁻¹ s⁻¹ in assay [15].

Source of the values: patent publication EP4707300A1 (Beijing Wisdomab Biotechnology Co., Ltd, dated 2026).
